Source: patent US20140234351A1 (IMMUNOCELLULAR THERAPEUTICS, published 2014)

B1: MAGE-A1 278-286 HLA-A2 peptide (peptide)
peptide: KVLEYVIKV
notes: Synthetic peptide; also called MAGEA1p278; MAGE-A1 p278
B2: IL-13Rα2 345-352 HLA-A2 peptide (peptide)
peptide: WLPFGFILI
notes: Synthetic peptide; also called IL-13Rα2p345; IL-13Rα2 p345
B3: EphA2 883-891 HLA-A2 peptide (peptide)
peptide: TLADFDPRV
notes: Synthetic peptide; also called EphA2p883; EphA2 p883
B4: FOLR1 191-199 HLA-A2 peptide (peptide)
peptide: EIWTHSYKV
notes: Synthetic peptide; also called FOLR1p191; FOLR1 p191
B5: Mesothelin 531-539 HLA-A2 peptide (peptide)
peptide: VLPLTVAEV
notes: Synthetic peptide; also called mesothelinp531; mesothelin p531

Each binder was assayed against T1, HLA-A*0201 molecules on TAP-deficient T2 cells (human) (assay: T2 cell binding assay, fluorescence index (MFI peptide - MFI untreated)/MFI untreated).
T1 construct: also called HLA-A2; T2 cells expressing HLA-A2

Row | Binder | MFI index
1 | B1 | > 1.5
2 | B2 | > 1.5
3 | B3 | > 1.5
4 | B4 | < 1
5 | B5 | > 1.5
